Test results as given in patent publication US20120282183A1.

Columns and labels:
[1] = molecular target: murine CXCR4 on mouse ES cells and mouse embryo fibroblasts (mouse) (UniProt P70658); assay: cell-based or functional assay
[2] = molecular target: murine CXCR6 on differentiated WT ES cells (mouse) (UniProt Q9EQ16); assay: cell-based or functional assay
Chain of murine CXCR6 on differentiated WT ES cells (mouse) (Q9EQ16 whole entry): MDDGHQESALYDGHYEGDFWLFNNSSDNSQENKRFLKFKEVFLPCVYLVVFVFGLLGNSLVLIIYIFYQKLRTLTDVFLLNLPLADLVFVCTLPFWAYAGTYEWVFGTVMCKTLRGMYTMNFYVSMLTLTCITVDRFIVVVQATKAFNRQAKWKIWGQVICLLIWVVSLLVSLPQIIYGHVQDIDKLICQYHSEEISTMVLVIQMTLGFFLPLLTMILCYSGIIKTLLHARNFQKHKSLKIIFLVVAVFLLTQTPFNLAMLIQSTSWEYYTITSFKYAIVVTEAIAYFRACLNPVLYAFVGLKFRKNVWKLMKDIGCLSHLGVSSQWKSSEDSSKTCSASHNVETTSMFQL

Chain of murine CXCR4 on mouse ES cells and mouse embryo fibroblasts (mouse) (P70658 whole entry): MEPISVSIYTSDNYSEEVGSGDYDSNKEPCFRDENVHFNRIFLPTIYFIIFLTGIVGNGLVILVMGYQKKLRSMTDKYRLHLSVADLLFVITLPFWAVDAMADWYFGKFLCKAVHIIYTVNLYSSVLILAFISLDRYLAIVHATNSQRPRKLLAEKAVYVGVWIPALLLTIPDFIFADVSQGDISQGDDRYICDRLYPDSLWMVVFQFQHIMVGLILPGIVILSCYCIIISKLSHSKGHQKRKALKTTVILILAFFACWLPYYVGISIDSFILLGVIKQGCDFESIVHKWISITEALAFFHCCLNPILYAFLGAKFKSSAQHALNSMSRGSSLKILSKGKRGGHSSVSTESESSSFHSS

CXCL12 chemotaxis of differentiating WT-ES cells [1]	chemotaxis of differentiated WT ES cells towards CXCL16 [2]	Substance
> 2 fold	–	chemokine CXCL12 (R&D systems) (ligand)
–	2 fold	chemokine CXCL16 (R&D) (ligand)
